Biological target: T1, hIL2Rb ECD antigen (human, UniProt P14784 27-240)
T1 construct: The immunogen was the ECD fused to human IgG1 hinge and Fc; also called ECD of IL2Rb (human); human IL-2Rβ
T1 sequence: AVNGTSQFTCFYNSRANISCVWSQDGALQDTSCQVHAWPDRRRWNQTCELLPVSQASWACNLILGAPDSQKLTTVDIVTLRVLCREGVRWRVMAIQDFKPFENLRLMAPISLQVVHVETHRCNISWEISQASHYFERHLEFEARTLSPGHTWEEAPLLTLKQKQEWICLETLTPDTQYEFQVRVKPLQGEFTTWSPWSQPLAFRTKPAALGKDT
Experiment: PE-ELISA of phage clones

B1: hIL2Rb_VHH-8 (VHH)
VHH: QVQLQESGGGSVQVGGSLKLSCAASGYTYSSYYCMGWFRQAPGKEREGVAAIDSDGSTSYADSVKGRFTISQDDAKNTLYLQMNSLKPEDTAMYYCAASYEVVDCYPSGYGQDYWGKGTQVTVSS
notes: As a his-tagged phage clone periplasmic extract
  binding result: binds

Source: US20250019453A1 (SYNTHEKINE, published 2025)
